Substrate: Nc1ccccc1C(=O)C[C@H](N)C(=O)O
Assay: cells, lysate or membranes named
Conditions: other: L-kynurenine 1 to 4,000 μM, OD600 = 0.6, IPTG 1 mM, 2 h at 37° C.

B1: human recombinant kyn-3-OHase (Homo sapiens) (protein)
chain: MDSSVIQRKKVAVIGGGLVGSLQACFLAKRNFQIDVYEAREDTRVATFTRGRSINLALSHRGRQALKAVGLEDQIVSQGIPMRARMIHSLSGKKSAIPYGTKSQYILSVSRENLNKDLLTAAEKYPNVKMHFNHRLLKCNPEEGMITVLGSDKVPKDVTCDLIVGCDGAYSTVRSHLMKKPRFDYSQQYIPHGYMELTIPPKNGDYAMEPNYLHIWPRNTFMMIALPNMNKSFTCTLFMPFEEFEKLLTSNDVVDFFQKYFPDAIPLIGEKLLVQDFFLLPAQPMISVKCSSFHFKSHCVLLGDAAHAIVPFFGQGMNAGFEDCLVFDELMDKFSNDLSLCLPVFSRLRIPDDHAISDLSMYNYIEMRAHVNSSWFIFQKNMERFLHAIMPSTFIPLYTMVTFSRIRYHEAVQRWHWQKKVINKGLFFLGSLIAISSTYLLIHYMSPRSFLCLRRPWNWIAHFRNTTCFPAKAVDSLEQISNLISR
B1 was tested, and the Km was 57 ± 2 µM and the Vmax was 10.5±0.11 nmol/hour.mg of protein.
